Reference: US20120219551A1

How the values were obtained:
[1] = biological target: FcγRIIIA on natural killer cells of human donor PBMC (human) (UniProt P08637); assay: cell-based or functional assay
[2] = biological target: soluble dimeric FcγRIIB-Fc fusion protein (extracellular domain of FcγRIIB fused to hinge-CH2-CH3 of human IgG2) (human) (UniProt P31994); assay: SPR (BIAcore), Fc mutant in ch4-4-20, off rate relative to wild type
[3] = biological target: FcγRIIIA (CD16A), F158 allotype (human) (UniProt P08637); assay: BIAcore
Sequence of FcγRIIIA (CD16A), F158 allotype (human) (P08637 17-208 limits assumed): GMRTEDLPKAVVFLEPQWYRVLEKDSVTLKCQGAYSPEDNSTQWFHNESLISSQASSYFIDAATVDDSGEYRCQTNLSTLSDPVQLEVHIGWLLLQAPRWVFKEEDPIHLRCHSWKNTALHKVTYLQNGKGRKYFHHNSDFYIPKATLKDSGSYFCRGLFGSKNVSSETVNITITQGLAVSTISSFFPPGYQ

[4] = biological target: FcγRIIIA (CD16A), V158 allotype (human) (UniProt P08637); assay: BIAcore
Sequence of FcγRIIIA (CD16A), V158 allotype (human) (P08637 17-208 F176V limits assumed): as the sequence (P08637 17-208 limits assumed) above, with F160V counted along it

FcγRIIB (CD32B) (human) [5] = biological target: FcγRIIB (CD32B) (human) (UniProt P31994); assay: BIAcore
Sequence of FcγRIIB (CD32B) (human) (P31994 43-217 limits assumed): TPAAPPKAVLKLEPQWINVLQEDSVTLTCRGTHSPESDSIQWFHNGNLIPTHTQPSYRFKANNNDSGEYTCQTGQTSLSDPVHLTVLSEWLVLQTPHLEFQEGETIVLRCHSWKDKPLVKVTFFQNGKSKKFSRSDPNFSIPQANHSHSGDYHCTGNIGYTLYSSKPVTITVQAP

[6] = biological target: FcγRIIA (CD32A), H131 allotype (human) (UniProt P12318); assay: BIAcore
Sequence of FcγRIIA (CD32A), H131 allotype (human) (P12318 34-217 limits assumed): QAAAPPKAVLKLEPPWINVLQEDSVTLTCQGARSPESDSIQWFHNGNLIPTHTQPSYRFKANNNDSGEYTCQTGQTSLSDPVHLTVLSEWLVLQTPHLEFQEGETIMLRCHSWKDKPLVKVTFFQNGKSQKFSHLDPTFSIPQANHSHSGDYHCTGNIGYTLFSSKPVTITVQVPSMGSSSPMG

[7] = biological target: FcγRIIIA (CD16A), F158 allotype (human) (UniProt P08637); assay: BIAcore (as Table 27)
[8] = biological target: FcγRIIIA (CD16A), V158 allotype (human) (UniProt P08637); assay: BIAcore (as Table 27)
FcγRIIB (CD32B) (human) [9] = biological target: FcγRIIB (CD32B) (human) (UniProt P31994); assay: BIAcore (as Table 27)
[10] = biological target: FcγRIIIA (CD16A), V158 allotype (human) (UniProt P08637); assay: not stated; human FcRs
FcγRIIB (CD32B) (human) [11] = biological target: FcγRIIB (CD32B) (human) (UniProt P31994); assay: not stated; human FcRs
[12] = biological target: FcγRIIA (CD32A), H131 allotype (human) (UniProt P12318); assay: not stated; human FcRs

Sequence of FcγRIIIA on natural killer cells of human donor PBMC (human) (P08637 17-254): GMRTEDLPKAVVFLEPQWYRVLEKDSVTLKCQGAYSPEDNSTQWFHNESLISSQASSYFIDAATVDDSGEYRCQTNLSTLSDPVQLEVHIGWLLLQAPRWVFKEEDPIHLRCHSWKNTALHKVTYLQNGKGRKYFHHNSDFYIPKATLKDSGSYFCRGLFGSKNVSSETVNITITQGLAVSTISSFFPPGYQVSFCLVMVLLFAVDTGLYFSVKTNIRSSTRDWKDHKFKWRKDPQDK
Sequence of soluble dimeric FcγRIIB-Fc fusion protein (extracellular domain of FcγRIIB fused to hinge-CH2-CH3 of human IgG2) (human) (P31994 43-217): as the sequence (P31994 43-217 limits assumed) above

ch4-4-20 MgFc42 (D221E, D270E, V308A, Q311H, P396L, G402D) (antibody)
Relative rate of lysis (ADCC, vs wild type ch4-4-20) [1]: 3.17

ch4-4-20 MgFc44 (K334N, P396L) (antibody)
Relative rate of lysis (ADCC, vs wild type ch4-4-20) [1]: 2.43

ch4-4-20 MgFc46 (P217S, P396L) (antibody)
Relative rate of lysis (ADCC, vs wild type ch4-4-20) [1]: 2.04

ch4-4-20 MgFc47 (K210M, P396L) (antibody)
Relative rate of lysis (ADCC, vs wild type ch4-4-20) [1]: 2.02

ch4-4-20 MgFc48 (V379M, P396L) (antibody)
Relative rate of lysis (ADCC, vs wild type ch4-4-20) [1]: 2.01

ch4-4-20 MgFc50 (P247S, P396L) (antibody)
Relative rate of lysis (ADCC, vs wild type ch4-4-20) [1]: 2.1

ch4-4-20 MgFc51 (Q419H, P396L) (antibody)
Relative rate of lysis (ADCC, vs wild type ch4-4-20) [1]: 2.24

ch4-4-20 MgFc52 (V240A, P396L) (antibody)
Relative rate of lysis (ADCC, vs wild type ch4-4-20) [1]: 2.35

ch4-4-20 MgFc54 (F243L, V305I, A378D, F404S, P396L) (antibody)
Relative rate of lysis (ADCC, vs wild type ch4-4-20) [1]: 3.59

ch4-4-20 MgFc55 (R255L, P396L) (antibody)
Relative rate of lysis (ADCC, vs wild type ch4-4-20) [1]: 2.79

ch4-4-20 MgFc57 (L242F, P396L) (antibody)
Relative rate of lysis (ADCC, vs wild type ch4-4-20) [1]: 2.4

ch4-4-20 MgFc59 (K370E, P396L) (antibody)
Relative rate of lysis (ADCC, vs wild type ch4-4-20) [1]: 2.47

ch4-4-20 MgFc60 (P217S, P396L) (antibody)
Relative rate of lysis (ADCC, vs wild type ch4-4-20) [1]: 1.44

ch4-4-20 MgFc61 (A330V) (antibody)
Koff WT/Mut [2]: 0.61

ch4-4-20 MgFc62 (R292G) (antibody)
Koff WT/Mut [2]: 0.67

ch4-4-20 MgFc63 (S298N, K360R, N361D) (antibody)
Koff WT/Mut [2]: 0.67

ch4-4-20 MgFc64 (E233G) (antibody)
Koff WT/Mut [2]: 0.54

ch4-4-20 MgFc65 (N276Y) (antibody)
Koff WT/Mut [2]: 0.64

immunoglobulin with Fc variant D270E (antibody)
Koff WT/Koff mutant [3]: 1.48
Koff WT/Koff mutant [4]: 1.25
Koff WT/Koff mutant (FcγRIIB (CD32B) (human) [5]): 0.39
Koff WT/Koff mutant [6]: 2.24
Koff WT/Koff mutant [7]: 1.48
Koff WT/Koff mutant [8]: 1.25
Koff WT/Koff mutant (FcγRIIB (CD32B) (human) [9]): 0.39

immunoglobulin with Fc variant D270E, K392T, P396L (antibody)
fold change vs wild-type affinity [10]: 0.8 fold
fold change vs wild-type affinity (FcγRIIB (CD32B) (human) [11]): -0.3 fold
fold change vs wild-type affinity [12]: 0.9 fold

immunoglobulin with Fc variant D270E, P396L (antibody)
Koff WT/Koff mutant [3]: 1.65
Koff WT/Koff mutant [4]: 1.38
Koff WT/Koff mutant (FcγRIIB (CD32B) (human) [5]): 0.89
Koff WT/Koff mutant [6]: 2.44
Koff WT/Koff mutant [7]: 1.65
Koff WT/Koff mutant [8]: 1.38
Koff WT/Koff mutant (FcγRIIB (CD32B) (human) [9]): 0.89

immunoglobulin with Fc variant D270E, P396L, Q419H (antibody)
Koff WT/Koff mutant [4]: 1.64
Koff WT/Koff mutant (FcγRIIB (CD32B) (human) [5]): 0.68
Koff WT/Koff mutant [6]: 1.7
Koff WT/Koff mutant [8]: 1.64
Koff WT/Koff mutant (FcγRIIB (CD32B) (human) [9]): 0.68
